Experimental data as given in patent US20060018907A1 (published 2006).

Legend:
[1] = target: human lymphotoxin (TNFβ) (human) (UniProt P01374); assay: cell-based or functional assay
[2] = target: human tumor necrosis factor-α (TNFα) (human, UniProt P01375 77-233); assay: cell-based or functional assay
Sequence of human tumor necrosis factor-α (TNFα) (P01375 77-233): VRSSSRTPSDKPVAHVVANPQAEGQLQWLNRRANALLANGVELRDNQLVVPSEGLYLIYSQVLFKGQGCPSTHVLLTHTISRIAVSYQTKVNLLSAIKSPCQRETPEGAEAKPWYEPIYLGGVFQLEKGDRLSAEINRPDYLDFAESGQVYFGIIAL

Sequence of human lymphotoxin (TNFβ) (human) (P01374 35-205 limits assumed): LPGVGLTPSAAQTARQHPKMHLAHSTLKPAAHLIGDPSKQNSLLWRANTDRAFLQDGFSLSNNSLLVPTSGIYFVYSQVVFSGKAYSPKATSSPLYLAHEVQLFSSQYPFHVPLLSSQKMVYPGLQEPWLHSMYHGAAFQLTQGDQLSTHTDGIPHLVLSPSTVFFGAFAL

Molecule: p55-sf2 (p55 TNF receptor / IgG1 heavy chain single fusion with truncated light chain JCK) (from UniProt P19438) (Fc fusion)
- amount needed for the same inhibition of TNFβ cytotoxicity, against p75P-sf2 (fold against p75P-sf2) [1]: 3

B1: p75-sf2 (complete extracellular domain of p75 fused to the IgG1 heavy chain, with truncated light chain) (Fc fusion)
chain: QLPAQVAFTPYAPEPGSTCRLREYYDQTAQMCCSKCSPGQHAKVFCTKTSDTVCDSCEDSTYTQLWNWVPECLSCGSRCSSDQVETQACTREQNRICTCRPGWYCALSKQEGCRLCAPLRKCRPGFGVARPGTETSDVVCKPCAPGTFSNTTSSTDICRPHQICNVVAIPGNASMDAVCTSTSPTRSMAPGAVHLPQPVSTRSQHTQPTPEPSTAPSTSFLLPMGPSPPAEGSTGDGTLVTVSS
- amount needed for 50% inhibition of TNFα cytotoxicity, against p55-sf2 [2]: ~2 fold against p55-sf2

B2: chimeric mouse/human IgG1 anti-platelet mAb (7E3) (antibody, INN chains, looked up, V domains shown)
VH: EVQLQQSGTVLARPGASVKMSCEASGYTFTNYWMHWVKQRPGQGLEWIGAIYPGNSDTSYIQKFKGKAKLTAVTSTTSVYMELSSLTNEDSAVYYCTLYDGYYVFAYWGQGTLVTVSA
VL: EIVLTQSPVTLSVTPGDSVSLSCRASRDISNNLHWFQQTSHESPRLLIKYASQSMSGIPSRFSGSGSGTDFTLSINSVETEDFGMYFCQQTNSWPYTFGGGTKLEIK
modifications: IgG1
- IL-6 secreted by FS-4 fibroblasts (ng/ml); 4 µg/ml antibody, 0.3 ng/ml TNF (no antibody: 1.36) [2]: 1.6 ng/ml IL-6
- IL-6 secreted by FS-4 fibroblasts (ng/ml); 4 µg/ml antibody, 1.5 ng/ml TNF (no antibody: 2.00) [2]: 1.96 ng/ml IL-6
- IL-6 secreted by FS-4 fibroblasts (ng/ml); 4 µg/ml antibody, 7.5 ng/ml TNF (no antibody: 2.56) [2]: 2.16 ng/ml IL-6
